Data reported in patent publication US20150072922A1, “RNASE 7 ANTIMICROBIAL PEPTIDES” (THE RESEARCH INSTITUTE AT NATIONWIDE CHILDREN'S HOSPITAL, priority 2012, published 2015).
Entries after “also recorded” stand apart in the source; their conditions may differ.

B1: RNase7: recombinant full-length human Ribonuclease 7, amino acids 1-128 (SEQ ID NO: 1), N-terminal His tag (protein, listed as Homo sapiens)
chain: KPKGMTSSQWFKIQHMQPSPQACNSAMKNINKHTKRCKDLNTFLHEPFSSVAATCQTPKIACKNGDKNCHQSHGPVSLTMCKLTSGKYPNCRYKEKRQNKSYVVACKPPQKKDSQQFHLVPVHLDRVL
modifications: N-terminal His tag
B2: F:1-97: recombinant N-terminal RNase 7 fragment, amino acids 1 to 97 (SEQ ID NO: 5), N-terminal His tag (protein, listed as Homo sapiens)
chain: KPKGMTSSQWFKIQHMQPSPQACNSAMKNINKHTKRCKDLNTFLHEPFSSVAATCQTPKIACKNGDKNCHQSHGPVSLTMCKLTSGKYPNCRYKEKR
modifications: N-terminal His tag

Assays:
[1] = test system: Staphylococcus saprophyticus (ATCC 15305); assay: Antimicrobial kill (microdilution) assay, MIC/MBC by CFU count; assay type: cell-based; settings: for S. saprophyticus MIC: lowest concentration that inhibits the growth of 90% of the inoculation; for S. saprophyticus MIC / S. saprophyticus MBC: 3 hours, 0.1×PBS; for S. saprophyticus MBC: minimum bactericidal concentration; for antimicrobial activity against S. saprophyticus (in words): MIC/MBC based, mostly compared to full-length RNase 7
Procedure: (§1) The antimicrobial activity of RNase 7 and its fragments was estimated using a microdilution assay. Briefly, test bacteria (10^5) were incubated with several concentrations of RNase 7 and each fragment in 50 μl 0.1×PBS buffer for 3 hours in a 37° C. incubator. Each reaction was plated on the appropriate medium and grew overnight at 37° C. The antimicrobial activity was determined by the number of colony-forming units (CFUs) the following day. The minimum inhibition concentration (MIC) is defined as the lowest concentration that inhibits the growth of 90% of the inoculation and the minimum bactericidal concentration (MB C) is defined as the lowest concentration at which less than 99.99% of the initial inoculum is viable.
(§2) Antimicrobial activities of the recombinant peptides were estimated with a microdilution assay. Briefly, the test bacteria (10^4 CFUs) were incubated with various concentrations of RNase 7 and each fragment in 50 ul 0.1×PBS buffer for 3 hours at 37° C. After incubation on Agar plates overnight at 37° C., the number of colony-forming units (CFUs) at each peptide concentration was determined. Using untreated bacterial aliquots as baseline, the minimum inhibition concentration (MIC) was defined as the lowest concentration that inhibits the growth of 90% of the inoculation, and the minimum bactericidal concentration (MBC) was defined as the lowest concentration at which less than 99.99% of the initial inoculum is viable.

Escherichia coli (UTI89) = assay: as above; assay type: cell-based; settings: for E. coli MIC: lowest concentration that inhibits the growth of 90% of the inoculation; for E. coli MIC / E. coli MBC: 3 hours, 0.1×PBS; for E. coli MBC: minimum bactericidal concentration; for antimicrobial activity against E. coli (in words): MIC/MBC based, mostly compared to full-length RNase 7
Procedure: as §1, §2

Proteus mirabilis = assay: Urinary condition functional assay (OD600 growth curves); assay type: cell-based; settings: for activity on Proteus mirabilis growth at various CaCl2 titers: 2 μM peptide, 1.25, 7.5, 16.25 mM CaCl2, OD600 for 10 hours, FIG. 11; for activity on Proteus mirabilis growth at various NaCl titers: 2 μM peptide, 50, 150, 500 mM NaCl, OD600 for 10 hours, FIG. 10; for activity on Proteus mirabilis growth at various pH levels: 2 μM peptide, pH 5, 7, 9, OD600 for 10 hours, FIG. 9
Procedure: (§3) Because the urinary environment can have significant variation in salt concentration, ionic composition, and pH, an antimicrobial/bacteriostatic assay was performed to evaluate if pH, calcium, or ionic strength affects the activity of full-length RNase7 or its fragments. The highest activity fragment F:1-97 and lowest activity fragment F:72-128 for these experiments were chosen. Bacteria were inoculated in 1% peptone water and growth to log phase with OD600=0.5. Bacteria were diluted to 1:10 and 1 μl added to 100 μl of 1% peptone water with various pH, CaCl2 or NaCl concentrations that correspond to a physiologic range present in the urine in a 96-well flat bottom plate (Thermo Scientific, Nunc, Worcester, Mass.). To each well, 2 μM of RNase7 or its fragments were added.
(§4) Bacterial growth was monitored using an Absorbance microplate reader (BioTek Instruments, Winooski, Vt.) at a final volume of 110 μl. The turbidity of the culture was measured and recorded at t=0 and every 20 min thereafter for 10 hours using the absorbance at 600 nm (OD600). The values of OD600 values were plotted against times to generate growth curves.

E. coli (UTI-89) = assay: Live/Dead BacLight bacterial viability assay (confocal imaging); assay type: cell-based, Escherichia coli; settings: 1 μM
Procedure: (§5) Bacterial viability assays were performed using a Live/Dead BacLight™ bacterial viability kit (Invitrogen). Uropathogenic E. coli (UTI-89) and S. Saprophyticus (ATCC 15305) were grown at 37° C. to the mid-log phase, centrifuged at 5000 rpm for 5 min, and resuspended in water with an OD=0.2. Bacteria were stained using a 1:1 mixture of a green-fluorescent STY®9 dye and a red-fluorescent propidium iodide dye as provided in the Live/Dead BacLight™ bacterial viability kit. SYTO®9 labels both live and dead bacteria. Propidium iodide penetrates only bacteria with damaged membranes. Consequently, live bacteria with intact membranes fluoresce green, while dead bacteria with damaged membranes fluoresce red. […]. 50 uL of stained uropathogenic bacteria was mixed with recombinant RNase 7 or RNase 7 fragments to achieve a final concentration of 3 uM and 1 uM. 10 uL of this mixture was added to poly-1-lysine coated microscope slides (Polysciences, Inc, Warrington, Pa., USA) and confocal images of the bacteria were obtained using a Zeiss LSM 700 confocal laser scanning microscope (Carl Zeiss LLC, Thornwood, N.Y., USA). SYTO®9 was excited using an argon laser (448-500 nm emission collected) and propidium iodide was excited using an orange diode (555-600 nm emission collected). Samples were imaged in triplicate.
(§6) For images of intact versus disrupted membranes of dying/dead cells, the Live/Dead BacLight™ bacterial viability kit (Invitrogen) was used. E. coli and S. saprophyticus were grown at 37° C. to the mid-log phase, centrifuged at 5000 rpm for 5 min, and resuspended in water to an OD600 of 0.2. Bacteria were incubated in a 1:1 mixture of Live/Dead BacLight™ bacterial viability assay. A bacterial aliquot of 50 μL was mixed with recombinant RNase 7 or recombinant fragments to achieve a final concentration of 1 μM. Ten microliters of this mixture was added to poly-1-lysine coated microscope slides (Polysciences, Inc, Warrington, Pa., USA), and images were obtained in triplicate using a Zeiss LSM 710 confocal laser scanning microscope (Carl Zeiss LLC, Thornwood, N.Y., USA).

E. coli = assay: Urinary condition functional assay (OD600 growth curves); assay type: cell-based, Escherichia coli; settings: for activity on E. coli growth at various pH levels / activity on E. coli growth at various CaCl2 titers: 2 μM peptide; for activity on E. coli growth at various pH levels: 1% peptone water, pH 5, 7, 9, OD600 for 10 hours, FIG. 3; for activity on E. coli growth at various NaCl titers: 2 μM peptide, 50, 150, 500 mM NaCl, FIG. 4; for activity on E. coli growth at various NaCl titers / activity on E. coli growth at various CaCl2 titers: OD600 for 10 hours; for activity on E. coli growth at various CaCl2 titers: CaCl2 up to 16.25 mM, FIG. 5
Procedure: as §3, §4

[2] = test system: Proteus mirabilis (ATCC 7002); assay: Antimicrobial kill (microdilution) assay, MIC/MBC by CFU count; assay type: cell-based; settings: for P. mirabilis MIC: lowest concentration that inhibits the growth of 90% of the inoculation; for P. mirabilis MIC / P. mirabilis MBC: 3 hours, 0.1×PBS; for P. mirabilis MBC: minimum bactericidal concentration
Procedure: Uropathogenic Escherichia coli (UTI89) was grown in Luria broth (LB) medium and plated on LB-agar. Uropathogenic Staphylococcus saprophyticus (ATCC 15305) was grown in LB and plated on Trypticase Soy Agar with 5% sheep blood (Fisher Scientific, Pittsburgh, Pa., USA). Uropathogenic Proteus mirabilis (ATCC 7002) was grown in LB and plated on MacConkey II Agar (Fisher Scientific, Pittsburgh, Pa., USA). These organisms were chosen as the primary organisms that account for a majority of Gram-negative and Gram-positive urinary tract infections (UTI). Anti-RNase 7 antibody was generated in rabbit with recombinant human RNase 7 (Biomatik, Wilmington, Del., USA)
as §2

S. saprophyticus = assay: Urinary condition functional assay (OD600 growth curves); assay type: cell-based, Staphylococcus saprophyticus; settings: for activity on S. saprophyticus growth at various NaCl titers: 2 μM peptide, 50, 150, 500 mM NaCl, FIG. 7; for activity on S. saprophyticus growth at various NaCl titers / activity on S. saprophyticus growth at various CaCl2 titers: OD600 for 10 hours; for activity on S. saprophyticus growth at various CaCl2 titers / activity on S. saprophyticus growth at various pH levels: 2 μM peptide; for activity on S. saprophyticus growth at various CaCl2 titers: CaCl2 up to 16.25 mM, FIG. 8; for activity on S. saprophyticus growth at various pH levels: pH 5, 7, 9, OD600 for 10 hours, FIG. 6
Procedure: as §3, §4

[3] = test system: S. Saprophyticus (ATCC 15305); assay: Live/Dead BacLight bacterial viability assay (confocal imaging); assay type: cell-based, Staphylococcus saprophyticus; settings: 1 μM
Procedure: as §5, §6

[4] = compared to full-length RNase 7

| Molecule | S. saprophyticus MIC [1] [µM] | S. saprophyticus MBC [1] | E. coli MIC (Escherichia coli (UTI89)) [µM] | E. coli MBC (Escherichia coli (UTI89)) [µM] | activity on Proteus mirabilis growth at various CaCl2 titers (Proteus mirabilis) | activity on Proteus mirabilis growth at various NaCl titers (Proteus mirabilis) | activity on Proteus mirabilis growth at various pH levels (Proteus mirabilis) | killing of E. coli in Bacterial Viability Assay (E. coli (UTI-89); 30 min) | killing of E. coli in Bacterial Viability Assay (E. coli (UTI-89); 3 hours) | activity on E. coli growth at various pH levels (E. coli) | activity on E. coli growth at various NaCl titers (E. coli) | activity on E. coli growth at various CaCl2 titers (E. coli) | P. mirabilis MIC [2] | P. mirabilis MBC [2] | activity on S. saprophyticus growth at various NaCl titers (S. saprophyticus) | activity on S. saprophyticus growth at various CaCl2 titers (S. saprophyticus) | activity on S. saprophyticus growth at various pH levels (S. saprophyticus) | killing of S. saprophyticus in Bacterial Viability Assay ([3]; 30 min) | killing of S. saprophyticus in Bacterial Viability Assay ([3]; 3 hours) | also measured |
| --- | --- | --- | --- | --- | --- | --- | --- | --- | --- | --- | --- | --- | --- | --- | --- | --- | --- | --- | --- | --- |
| B1 | 0.22 | .44 µM | 0.26 | 0.53 | significantly reduced full-length RNase 7 activity against all uropathogens; also recorded: activity is significantly diminished at higher CaCl2 concentrations but relatively unaffected at 1.25 mM concentration | diminished significantly with additional of any NaCl titer; also recorded: activity markedly diminished at all salt concentrations | maintained high activity at pH 5; also recorded: activity is potent at pH 5 | did not | completely dead | pH 9 (dotted line) decreases full-length RNase 7 activity; also recorded: activity was optimal at pH 7 against E. coli | activity was not different at 50 and 150 mM NaCl | activity is inversely related to CaCl2 concentration; also recorded: significantly reduced full-length RNase 7 activity against all uropathogens | .88 µM | .88 µM | diminished in direct proportion to NaCl concentration; also recorded: activity inversely related to NaCl concentration | significantly reduced full-length RNase 7 activity against all uropathogens; also recorded: activity is inversely related to CaCl2 concentration | activity is potent at all pH; also recorded: maintained high activity at pH 5 | did not | completely dead | MIC for S. saprophyticus [1]: 0.22 µM; MIC against E. coli (Escherichia coli (UTI89)): 0.26 µM; MIC for E. coli (Escherichia coli (UTI89); E. coli UTI89): 0.26 LM; MIC for P. mirabilis [2]: 0.88 µM; antimicrobial activity against P. mirabilis (in words) ([2]; MIC/MBC based, mostly compared to full-length RNase 7): MIC and MBC values that were identical |
| B2 | 0.04 | 0.08 µM | 0.07 | 0.14 | unchanged activity under all conditions against P. mirabilis; also recorded: activity is not significantly altered by CaCl2 concentrations | activity pattern comparable to full-length peptide at various NaCl concentrations | optimal activity at pH 5 (gray squares), but less compared to full length | killed most of the E. coli and S. saprophyticus | completely dead | activity pattern comparable to full-length peptide at various pHs | activity pattern comparable to full-length peptide at various NaCl concentrations | activity pattern comparable to full-length peptide at various CaCl2 concentrations; also recorded: sensitive to CaCl2 concentrations | .44 µM | .88 µM | diminished in direct proportion to NaCl concentration; also recorded: activity pattern comparable to full-length peptide at various NaCl concentrations | sensitive to CaCl2 concentrations; also recorded: activity is inversely related to CaCl2 concentration but more pronounced compared to full length RNase 7 | optimal activity at pH 5 | killed most of the E. coli and S. saprophyticus | completely dead | antimicrobial activity against S. saprophyticus (in words) [1]: decreased relative to the full-length peptide; antimicrobial activity against S. saprophyticus (in words) ([1]; listed as 1-97): increased activity against both strains; MICs and MBCs fold lower than full length protein, S. saprophyticus [1, 4]: at least 4 fold; antimicrobial activity against E. coli (in words) (Escherichia coli (UTI89)): decreased relative to the full-length peptide; antimicrobial activity against E. coli (in words) (Escherichia coli (UTI89); listed as 1-97): strongest activity; also recorded: increased activity against both strains; MICs and MBCs fold lower than full length protein, E. coli (Escherichia coli (UTI89); [4]): at least 4 fold |
